Experiments:
Conditions in all cases: both partners purified
[1] = molecular target: T1, Skeletal actin, filamentous (F-actin) (rabbit, UniProt P68135 1-377); test: co-sedimentation; high-speed co-sedimentation (300,000 g, 30 min, 25 °C), 5 uM PLS2 with 0-100 uM F-actin, 10 mM HEPES pH 8.0, 30 mM KCl, 2 mM MgCl2, 0.5 mM EGTA; fraction of PLS2 in the pellet fit to a binding curve
[2] = molecular target: T1, Skeletal actin, filamentous (F-actin); test: co-sedimentation; high-speed co-sedimentation (300,000 g, 30 min, 25 °C), 5 uM PLS2 with 0-100 uM F-actin, 10 mM HEPES pH 7.0, 30 mM KCl, 2 mM MgCl2, 0.5 mM EGTA; fraction of PLS2 in the pellet fit to a binding curve
[3] = molecular target: T1, Skeletal actin, filamentous (F-actin); test: co-sedimentation; high-speed co-sedimentation (300,000 g, 30 min, 25 °C), 2 uM ABD1 with 0-125 uM F-actin, 10 mM HEPES pH 7.0, 30 mM KCl, 2 mM MgCl2, 0.5 mM EGTA; fraction depleted from the supernatant fit to a binding curve
[4] = molecular target: T1, Skeletal actin, filamentous (F-actin); test: co-sedimentation; high-speed co-sedimentation (300,000 g, 30 min, 25 °C), 2 uM ABD1 with 0-125 uM F-actin, 10 mM HEPES pH 8.0, 30 mM KCl, 2 mM MgCl2, 0.5 mM EGTA; fraction depleted from the supernatant fit to a binding curve

Row | Binder | Kd [1] | Kd [2] | Kd [3] | Kd [4]
1 | plastin 2 (PLS2), full-length (natural protein, plastin 2 (PLS2, L-plastin, LCP1), human, full-length (FL) protein; Cloned in pColdI behind a 6xHis tag and TEV site; also called LCP1; L-plastin; source: E. coli BL21-CodonPlus(DE3)pLysS, purified (IMAC on cobalt resin, TEV cleavage, Superdex 200); not shown: His6, N-terminal, cleaved) MARGSVSDEEMMELREAFAKVDTDGNGYISFNELNDLFKAACLPLPGYRVREITENLMATGDLDQDGRISFDEFIKIFHGLKSTDVAKTFRKAINKKEGICAIGGTSEQSSVGTQHSYSEEEKYAFVNWINKALENDPDCRHVIPMNPNTNDLFNAVGDGIVLCKMINLSVPDTIDERTINKKKLTPFTIQENLNLALNSASAIGCHVVNIGAEDLKEGKPYLVLGLLWQVIKIGLFADIELSRNEALIALLREGESLEDLMKLSPEELLLRWANYHLENAGCNKIGNFSTDIKDSKAYYHLLEQVAPKGDEEGVPAVVIDMSGLREKDDIQRAECMLQQAERLGCRQFVTATDVVRGNPKLNLAFIANLFNRYPALHKPENQDIDWGALEGETREERTFRNWMNSLGVNPRVNHLYSDLSDALVIFQLYEKIKVPVDWNRVNKPPYPKLGGNMKKLENCNYAVELGKNQAKFSLVGIGGQDLNEGNRTLTLALIWQLMRRYTLNILEEIGGGQKVNDDIIVNWVNETLREAKKSSSISSFKDPKISTSLPVLDLIDAIQPGSINYDLLKTENLNDDEKLNNAKYAISMARKIGARVYALPEDLVEVNPKMVMTVFACLMGKGMKRV | 17.7 µM | 31.7 µM | – | –
2 | PLS2 ABD1 (a.a. 120-385) (domain or fragment, source: E. coli BL21-CodonPlus(DE3)pLysS, purified (IMAC on cobalt resin, TEV cleavage, Superdex 200); not shown: His6, N-terminal, cleaved) EEEKYAFVNWINKALENDPDCRHVIPMNPNTNDLFNAVGDGIVLCKMINLSVPDTIDERTINKKKLTPFTIQENLNLALNSASAIGCHVVNIGAEDLKEGKPYLVLGLLWQVIKIGLFADIELSRNEALIALLREGESLEDLMKLSPEELLLRWANYHLENAGCNKIGNFSTDIKDSKAYYHLLEQVAPKGDEEGVPAVVIDMSGLREKDDIQRAECMLQQAERLGCRQFVTATDVVRGNPKLNLAFIANLFNRYPALHKPENQDI | – | – | 24.7 µM | 13.9 µM

Source: paper PMC12309418, “Human Plastins are Novel Cytoskeletal pH Sensors with a Reduced F-actin Bundling Capacity at Basic pH” (Journal of molecular biology, 2025)
